Assay results: patent publication US20230063794A1, “STAPLED TRIAZOLE CO-AGONISTS OF THE GLUCAGON AND GLP-1 RECEPTORS” (Merck Sharp & Dohme LLC, priority 2019, published 2023)
Starred links: 1 amine or outer side, 2 acyl side, 3 side chain; linkers in the order of their positions; H or OH if unused. Positions of bridges follow the written chain, without caps; N, C: chain ends. Non-standard residues stand in square brackets, D forms with d. Residues, ends and D or L forms follow the SMILES beside them. Groups on a side chain read outwards from the residue. Triazole bridges read from a SMILES are 1,4-linked. No end group written: not given here. *: point of attachment. Peg3N3Ala = O-(2-(2-(2-azidoethoxy)ethoxy)ethyl)-L-serine, [N-]=[N+]=NCCOCCOCCOC[C@H](N[*:1])C(=O)[*:2]; Lys(N3) = [N-]=[N+]=NCCCC[C@H](N)C(=O)O; γGlu = O=C(O)[C@H](CCC(=O)[*:2])N[*:1]; Met(O2) = CS(=O)(=O)CC[C@H](N)C(=O)O; Palmitoyl = CCCCCCCCCCCCCCCC(=O)*; dPra = C#CC[C@@H](N)C(=O)O; Nle = CCCC[C@H](N)C(=O)O; Ac4c = NC1(C(=O)O)CCC1; Aib = CC(C)(N)C(=O)O

B1: TP487 (peptide)
peptide: HXQGTFTSDXSKYLDERAAXDFVXWLLDT
modifications: D-Ser at 2; Lys 10 conjugated to γEγE-C16 fatty acid; Nle(εN3) at 20 and pra at 24 cyclized to a triazole containing ring; C-terminal amide
B2: TP835 (peptide)
peptide: HXQGTFTSDXSKYLDARAAQDFVXWLLXT
modifications: D-Ser at 2; Lys 10 conjugated to γEγE-C16 fatty acid; pra at 24 and Nle(εN3) at 28 cyclized to a triazole containing ring; C-terminal amide
B3: TP488 (peptide)
peptide: HXQGTFTSDXSKYLDERAAXDFVXWLLDT
modifications: D-Ser at 2; Lys 10 conjugated to γEγE-C16 fatty acid; pra at 20 and Nle(εN3) at 24 cyclized to a triazole containing ring; C-terminal amide
B4: TP852 (peptide)
peptide: HXQGTFTSDXSKYLDARAAQDFVXWLLXT
modifications: D-Ser at 2; Lys 10 conjugated to γEγE-C16 fatty acid; Nle(εN3) at 24 and pra at 28 cyclized to a triazole containing ring; C-terminal amide
B5: TP862 (peptide)
peptide: H[Aib]QGTFTSDKSKYLD[Ac4c]RAAQDFV[dPra]WL[Met(O2)][Lys(N3)]TK-{γGlu-NH2}
modifications: triazole 24-28; not fully specified (residue 10); printed as HUQGTFTSDK(γEγEC16)SKYLDAcbRAAQDFVpra*WL2Nle(ϵN3)*T / KγE-NH2
B6: TP530 (peptide)
peptide: HXQGTFTSDKSKYLDERAAXDFVXWLLDT
modifications: D-Ser at 2; Nle(εN3) at 20 and pra at 24 cyclized to a triazole containing ring; C-terminal amide
B7: TP531 (peptide)
peptide: HXQGTFTSDKSKYLDERAAXDFVXWLLDT
modifications: D-Ser at 2; pra at 20 and Nle(εN3) at 24 cyclized to a triazole containing ring; C-terminal amide

biological target: T1, human GCGR (Homo sapiens, UniProt P47871); assay: cAMP activity assay in cells expressing human GCGR; type: cell-based; details: ratio of human GCGR EC50 to human GLP1R EC50
T1 construct: expressed in transfected cells; grown under Blasticidin and Hygromycin selection
T1 sequence (P47871 26-477): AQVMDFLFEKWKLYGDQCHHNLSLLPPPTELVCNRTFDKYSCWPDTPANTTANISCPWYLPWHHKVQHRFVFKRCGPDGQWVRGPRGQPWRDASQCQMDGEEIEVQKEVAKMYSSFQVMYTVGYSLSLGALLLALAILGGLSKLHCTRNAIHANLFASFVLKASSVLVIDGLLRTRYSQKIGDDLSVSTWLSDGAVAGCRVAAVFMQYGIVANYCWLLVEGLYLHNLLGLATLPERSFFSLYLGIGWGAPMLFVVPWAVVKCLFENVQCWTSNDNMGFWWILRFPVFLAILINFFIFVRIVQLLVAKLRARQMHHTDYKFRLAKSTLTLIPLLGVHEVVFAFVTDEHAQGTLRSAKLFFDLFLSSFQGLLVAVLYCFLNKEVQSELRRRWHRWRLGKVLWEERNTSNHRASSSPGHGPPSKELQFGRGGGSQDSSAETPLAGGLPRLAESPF
Experimental: Activity of the peptides at the Glucagon receptor (GCGR) and GLP-1 receptor (GLP1R) was measured in a cAMP activity assay.
Peptides were dissolved in 100% DMSO and serially diluted to generate 10 point titrations. The peptide solutions were then transferred into 384-well assay plates (150 nL/well). Assay ready frozen cells expressing human GLP1R or human GCGR were suspended in growth media consisting of DMEM medium (GIBCO), 10% FBS (GIBCO), 1× NEAA(GIBCO), 1× P/S (GIBCO), 10 ug/ml Blasticidin (GIBCO) and 200 μg/mL Hygromycin (GIBCO). Cells were then diluted in assay buffer consisting of PBS (GIBCO), 7.5% BSA (Perkin Elmer), 100 μM RO 20-1724 (Sigma), with or without 20% human serum (MP Biomedical). The cell suspensions (15 μL) were then added to the assay plates containing the peptide solutions (30,000 cells/well for human GCGR; 10,000 cells/well for human GLP1R). The cells were incubated for 1 hour at room temperature in the dark. Production of cAMP was determined using HitHunter™ cAMPXS kits (DiscoverX) following manufacturer protocol. The plates were incubated for overnight at room temperature in the dark. Luminescence was measured using an EnVision Multilabel plate reader (Perkin Elmer). Native GLP-1 and Glucagon (Bachem) are used as control peptides. EC50 values were calculated using uses a 4 parameter logistic fit based on the Levenberg-Marquardt algorithm.

Molecule	hGCGR/hGLP1R (hTone)
CC(C)C[C@H](NC(=O)[C@H](Cc1ccc(O)cc1)NC(=O)[C@H](CCCCN)NC(=O)[C@H](CO)NC(=O)[C@H](CCCCN)NC(=O)[C@H](CC(=O)O)NC(=O)[C@H](CO)NC(=O)[C@@H](NC(=O)[C@H](Cc1ccccc1)NC(=O)[C@@H](NC(=O)CNC(=O)[C@H](CCC(N)=O)NC(=O)[C@@H](CO)NC(=O)[C@@H](N)Cc1c[nH]cn1)[C@@H](C)O)[C@@H](C)O)C(=O)N[C@@H](CC(=O)O)C(=O)N[C@@H](CCC(=O)O)C(=O)N[C@@H](CCCNC(=N)N)C(=O)N[C@@H](C)C(=O)N[C@@H](C)C(=O)N[C@@H]1Cc2cn(nn2)CCCC[C@@H](C(=O)N[C@@H](Cc2c[nH]c3ccccc23)C(=O)N[C@@H](CC(C)C)C(=O)N[C@@H](CC(C)C)C(=O)N[C@@H](CC(=O)O)C(=O)N[C@H](C(N)=O)[C@@H](C)O)NC(=O)[C@H](C(C)C)NC(=O)[C@H](Cc2ccccc2)NC(=O)[C@H](CC(=O)O)NC1=O [compound 9] (H-H[dS]QGTFTSDKSKYLDERAA[dPra]DFV[Lys(N3)]WLLDT-NH2; triazole 20-24)	1.92
CCCCCCCCCCCCCCCC(=O)N[C@@H](CCC(=O)N[C@@H](CCC(=O)NCCCC[C@H](NC(=O)[C@H](CC(=O)O)NC(=O)[C@H](CO)NC(=O)[C@@H](NC(=O)[C@H](Cc1ccccc1)NC(=O)[C@@H](NC(=O)CNC(=O)[C@H](CCC(N)=O)NC(=O)[C@@H](CO)NC(=O)[C@@H](N)Cc1c[nH]cn1)[C@@H](C)O)[C@@H](C)O)C(=O)N[C@@H](CO)C(=O)N[C@@H](CCCCN)C(=O)N[C@@H](Cc1ccc(O)cc1)C(=O)N[C@@H](CC(C)C)C(=O)N[C@@H](CC(=O)O)C(=O)N[C@@H](C)C(=O)N[C@@H](CCCNC(=N)N)C(=O)N[C@@H](C)C(=O)N[C@@H](C)C(=O)N[C@@H](CCC(N)=O)C(=O)N[C@@H](CC(=O)O)C(=O)N[C@@H](Cc1ccccc1)C(=O)N[C@H](C(=O)N[C@@H]1Cc2cn(nn2)CCCC[C@@H](C(=O)N[C@H](C(N)=O)[C@@H](C)O)NC(=O)[C@H](CC(C)C)NC(=O)[C@H](CC(C)C)NC(=O)[C@H](Cc2c[nH]c3ccccc23)NC1=O)C(C)C)C(=O)O)C(=O)O [compound 15] (H-H[dS]QGTFTSDK([γGlu-γGlu-Palmitoyl])SKYLDARAAQDFV[dPra]WLL[Lys(N3)]T-NH2; triazole 24-28)	0.72

biological target: human GLP-1 receptor (GLP1R) (human, UniProt P43220 24-463); assay: cell-based or functional assay; details: not given

Molecule	GLP1R EC50 human (nM), cAMP activity assay
B1	0.22 nM
H[Aib]QGTFTSDKSKYLD[Aib]RAAQDFV[Lys(N3)]WLM[dPra]TK-{γGlu-NH2} (triazole 24-28) [TP532]	0.14 nM
H[Aib]QGTFTSDKSKYLD[Aib]RAAQDFV[dPra]WLM[Lys(N3)]TK-{γGlu-NH2} (triazole 24-28; also: lower-case v at 23 not defined) [TP533]	3.11 nM
H[dS]QGTFTSDK([γGlu-γGlu-Palmitoyl])SKYLD[dPra]RAA[Lys(N3)]DFVQWLLDT-NH2 (triazole 16-20) [TP731]	0.034 nM
H[dS]QGTFTSDK([γGlu-γGlu-Palmitoyl])SKYLDARAA[dPra]DFV[Lys(N3)]WLLDT-NH2 (triazole 20-24) [TP732]	0.123 nM
H[dS]QGTFTSDK([γGlu-γGlu-Palmitoyl])SKYLDA[dPra]AAQ[Lys(N3)]FVQWLLDT-NH2 (triazole 17-21) [TP733]	0.54 nM
B2	0.199 nM
H[Aib]QGTFTSDK([γGlu-γGlu-Palmitoyl])SKYLD[dPra]RAA[Lys(N3)]DFVQWL[Nle]DT-NH2 (triazole 16-20) [TP837]	0.042 nM
H[Aib]QGTFTSDK([γGlu-γGlu-Palmitoyl])SKYLD[Aib][dPra]AAQ[Lys(N3)]FVQWL[Nle]DT-NH2 (triazole 17-21) [TP841]	0.414 nM
H[Aib]QGTFTSDK([γGlu-γGlu-Palmitoyl])SKYLD[dPra]RAA[Lys(N3)]DFVQWL[Met(O2)]DTK-{γGlu-NH2} (triazole 16-20) [TP845]	0.027 nM
B3	0.042 nM
H[Aib]QGTFTSDK([γGlu-γGlu-Palmitoyl])SKYLD[Aib]RAA[dPra]DFV[Lys(N3)]WL[Met(O2)]DTK-{γGlu-NH2} (triazole 20-24) [TP847]	0.024 nM
H[Aib]QGTFTSDK([γGlu-γGlu-Palmitoyl])SKYLD[Aib][dPra]AAQ[Lys(N3)]FVQWL[Met(O2)]DTK-{γGlu-NH2} (triazole 17-21) [TP849]	0.041 nM
H[Aib]QGTFTSDK([γGlu-γGlu-Palmitoyl])SKYLD[Aib]RAAQDFV[dPra]WL[Met(O2)][Lys(N3)]TK-{γGlu-NH2} (triazole 24-28) [TP851]	0.025 nM
B4	0.109 nM
H[Aib]QGTFTSDK([γGlu-γGlu-Palmitoyl])SKYLD[Ac4c][dPra]AAQ[Lys(N3)]FVQWL[Met(O2)]DTK-{γGlu-NH2} (triazole 17-21) [TP858]	0.042 nM
H[Aib]QGTFTSDK([γGlu-γGlu-Palmitoyl])SKYLD[Ac4c]RAA[dPra]DFV[Lys(N3)]WL[Met(O2)]DTK-{γGlu-NH2} (triazole 20-24) [TP860]	0.042 nM
B5	0.042 nM
H[dS]QGTFTSDK([γGlu-γGlu-Palmitoyl])SKYLDA[dPra]AAQDFV[Peg3N3Ala]WLLDT-NH2 (triazole 17-24) [TP920]	0.416 nM
B6	0.03 nM
B7	0.168 nM

biological target: human Glucagon receptor (GCGR) (human, UniProt P47871 26-477); assay: cell-based or functional assay; details: not given
Sequence (P47871 26-477): as above

Molecule	GCGR EC50 human (nM), cAMP activity assay
B1	0.09 nM
H[Aib]QGTFTSDKSKYLD[Aib]RAAQDFV[Lys(N3)]WLM[dPra]TK-{γGlu-NH2} (triazole 24-28) [TP532]	1.07 nM
H[Aib]QGTFTSDKSKYLD[Aib]RAAQDFV[dPra]WLM[Lys(N3)]TK-{γGlu-NH2} (triazole 24-28; also: lower-case v at 23 not defined) [TP533]	5 nM
H[dS]QGTFTSDK([γGlu-γGlu-Palmitoyl])SKYLD[dPra]RAA[Lys(N3)]DFVQWLLDT-NH2 (triazole 16-20) [TP731]	0.03 nM
H[dS]QGTFTSDK([γGlu-γGlu-Palmitoyl])SKYLDARAA[dPra]DFV[Lys(N3)]WLLDT-NH2 (triazole 20-24) [TP732]	0.052 nM
H[dS]QGTFTSDK([γGlu-γGlu-Palmitoyl])SKYLDA[dPra]AAQ[Lys(N3)]FVQWLLDT-NH2 (triazole 17-21) [TP733]	0.279 nM
B2	0.143 nM
H[Aib]QGTFTSDK([γGlu-γGlu-Palmitoyl])SKYLD[dPra]RAA[Lys(N3)]DFVQWL[Nle]DT-NH2 (triazole 16-20) [TP837]	0.048 nM
H[Aib]QGTFTSDK([γGlu-γGlu-Palmitoyl])SKYLD[Aib][dPra]AAQ[Lys(N3)]FVQWL[Nle]DT-NH2 (triazole 17-21) [TP841]	0.819 nM
H[Aib]QGTFTSDK([γGlu-γGlu-Palmitoyl])SKYLD[dPra]RAA[Lys(N3)]DFVQWL[Met(O2)]DTK-{γGlu-NH2} (triazole 16-20) [TP845]	0.134 nM
B3	0.04 nM
H[Aib]QGTFTSDK([γGlu-γGlu-Palmitoyl])SKYLD[Aib]RAA[dPra]DFV[Lys(N3)]WL[Met(O2)]DTK-{γGlu-NH2} (triazole 20-24) [TP847]	0.107 nM
H[Aib]QGTFTSDK([γGlu-γGlu-Palmitoyl])SKYLD[Aib][dPra]AAQ[Lys(N3)]FVQWL[Met(O2)]DTK-{γGlu-NH2} (triazole 17-21) [TP849]	0.25 nM
H[Aib]QGTFTSDK([γGlu-γGlu-Palmitoyl])SKYLD[Aib]RAAQDFV[dPra]WL[Met(O2)][Lys(N3)]TK-{γGlu-NH2} (triazole 24-28) [TP851]	0.109 nM
B4	0.059 nM
H[Aib]QGTFTSDK([γGlu-γGlu-Palmitoyl])SKYLD[Ac4c][dPra]AAQ[Lys(N3)]FVQWL[Met(O2)]DTK-{γGlu-NH2} (triazole 17-21) [TP858]	0.064 nM
H[Aib]QGTFTSDK([γGlu-γGlu-Palmitoyl])SKYLD[Ac4c]RAA[dPra]DFV[Lys(N3)]WL[Met(O2)]DTK-{γGlu-NH2} (triazole 20-24) [TP860]	0.077 nM
B5	0.139 nM
H[dS]QGTFTSDK([γGlu-γGlu-Palmitoyl])SKYLDA[dPra]AAQDFV[Peg3N3Ala]WLLDT-NH2 (triazole 17-24) [TP920]	0.115 nM
B6	0.06 nM
B7	0.323 nM
